Paper PMC9918506, “Structural insights into pathogenic mechanism of hypohidrotic ectodermal dysplasia caused by ectodysplasin A variants” (Nature Communications, 2023)

B2: EDA·A1 TNF homology domain (EDA·A1THD, residues 233–391), wild type (domain or fragment, human, UniProt Q92838 233-391, looked up)
chain: GPSGAADKAGTRENQPAVVHLQGQGSAIQVKNDLSGGVLNDWSRITMNPKVFKLHPRSGELEVLVDGTYFIYSQVEVYYINFTDFASYEVVVDEKPFLQCTRSIETGKTNYNTCYTAGVCLLKARQKIAVKMVHADISINMSKHTTFFGAIRLGEAPAS
notes: ectodysplasin A, splice form EDA·A1 (with Val307-Glu308), human, THD residues 233-391; Optimized cDNA in pMAL-c2x; MBP removed with 3C protease; Trimer in the crystal structure; also called WT EDA·A1THD; ectodysplasin A THD; source: E. coli BL21 CodonPlus (DE3), purified (amylose, Superdex 200, 3C cleavage, Mono-S, Superdex 200); not shown: MBP, N-terminal, cleaved

Key:
[1] = biological target: EDA·A1THD (residues 233–391) R276C (human, UniProt Q92838 233-391, R276C); test: SPR
[2] = biological target: B2; test: SPR; WT and mutant EDA·A1THD immobilised on CM5 chips, EDAR_(CRDS) serially diluted and injected; Biacore 8K; 10 mM HEPES pH 7.5, 150 mM NaCl, 3 mM EDTA, 25 °C; steady-state analysis at equilibrium; conditions: both partners purified
[3] = biological target: the molecule itself; test: crystal structure; EDA·A1THD and EDAR_(CRDS) mixed at a molar ratio of 1:1; crystals in 25% PEG-6000, 0.1 M BICINE pH 9.0, 4 °C; 2.8 Å
[4] = biological target: T1, EDA·A1 TNF homology domain (EDA·A1THD, residues 233-391) (human, UniProt Q92838 233-391); test: SEC; gel filtration on a Superdex 200 analytical column, fractions on SDS-PAGE; EDA·A1THD alone, EDAR_(CRDS) alone and the mixture; conditions: both partners purified
T1 construct: ectodysplasin A, splice form EDA·A1, human, TNF homology domain, residues 233-391; MBP removed with 3C protease; codon-optimised cDNA in pMAL-c2x; Trimer in the crystal structure; also called EDATHD; ectodysplasin A; source: E. coli BL21 CodonPlus (DE3), purified (amylose beads, Superdex 200, Mono-S, Superdex 200 increase); not shown: MBP, N-terminal, cleaved
T1 sequence (looked up): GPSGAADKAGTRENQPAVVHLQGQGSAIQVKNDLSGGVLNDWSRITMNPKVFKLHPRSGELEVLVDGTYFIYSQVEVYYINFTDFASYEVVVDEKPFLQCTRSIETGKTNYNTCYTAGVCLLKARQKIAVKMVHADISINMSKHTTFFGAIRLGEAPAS

B1: EDAR cysteine-rich domains (EDAR_(CRDS), residues 30–150), MBP tag removed (domain or fragment, human)
chain: GGSGGSGGSGGSNCGENEYYNQTTGLCQECPPCGPGEEPYLSCGYGTKDEDYGCVPCPAEKFSKGGYQICRRHKDCEGFFRATVLTPGDMENDAECGPCLPGYYMLENRPRNIYGMVCYSCLLAPPNTKECVG
notes: EDAR (ectodysplasin A receptor), human, cysteine-rich domains CRD1-CRD3, residues 30-150; Construct: EDAR signal peptide (residues 1-28), MBP, 3C site, linker, EDAR 30-150; That the linker stays on the protein after 3C cleavage follows only from the order in which the methods list the elements; also called ectodomains of EDAR; source: Hi5 insect cells (baculovirus), secreted, purified (amylose, …)
**Q.** For B1, which Kd [1] is on record?
**A.** The Kd was 35.9 nM.

**Q.** What about the Kd [2] of the same binder?
**A.** Its Kd is 18.5 nM.

**Q.** Which “stoichiometry N” value [3] does the source give for B2 here?
**A.** Its value is 3.

B3: EDAR cysteine-rich domains (EDAR_(CRDS), residues 30-150) (domain or fragment, human, UniProt Q9UNE0 30-150, looked up)
chain: NCGENEYYNQTTGLCQECPPCGPGEEPYLSCGYGTKDEDYGCVPCPAEKFSKGGYQICRRHKDCEGFFRATVLTPGDMENDAECGPCLPGYYMLENRPRNIYGMVCYSCLLAPPNTKECVG
notes: EDAR, human, N-terminal cysteine-rich domains, residues 30-150; MBP removed with 3C protease; also called EDAR ectodomain; source: Hi5 insect cells (baculovirus), secreted, purified (amylose beads, Mono-Q, Superdex 200); not shown: MBP, N-terminal, cleaved
**Q.** Does B3 bind [4]?
**A.** Result: binds
